Laboratory results taken from paper PMC3750081.

B1: p53 codon 248 O6-POB-G (dsDNA)
DNA 1: CATGAACCGGAGGCCCATC
DNA 2: GATGGGCCTCCGGTTCATG
modifications: O6-POB-dG at strand 1 position 9
B2: p53 codon 248 5'-MeC O6-POB-G (dsDNA)
DNA 1: CATGAACCGGAGGCCCATC
DNA 2: GATGGGCCTCCGGTTCATG
modifications: O6-POB-dG at strand 1 position 9; 5-methyl-C at strand 1 position 8
B3: p53 codon 248 O6-POB-G:MeC base pair (dsDNA)
DNA 1: CATGAACCGGAGGCCCATC
DNA 2: GATGGGCCTCCGGTTCATG
modifications: O6-POB-dG at strand 1 position 9; 5-methyl-C at strand 2 position 11
B4: p53 codon 248 both MeC O6-POB-G (dsDNA)
DNA 1: CATGAACCGGAGGCCCATC
DNA 2: GATGGGCCTCCGGTTCATG
modifications: O6-POB-dG at strand 1 position 9; 5-methyl-C at strand 1 position 8 and strand 2 position 11
B5: p53 codon 158 5'-MeC O6-POB-G (dsDNA)
DNA 1: ACCCGCGTCCGCGCCATGGCC
DNA 2: GGCCATGGCGCGGACGCGGGT
modifications: O6-POB-dG at strand 1 position 11; 5-methyl-C at strand 1 position 10 (text; Table 4 marks lost)

Each binder was assayed against AGT (O6-alkylguanine-DNA alkyltransferase) C145A (Homo sapiens, UniProt P16455 1-207, C145A) (assay: EMSA).
Sequence of AGT (O6-alkylguanine-DNA alkyltransferase) C145A (P16455 whole entry C145A): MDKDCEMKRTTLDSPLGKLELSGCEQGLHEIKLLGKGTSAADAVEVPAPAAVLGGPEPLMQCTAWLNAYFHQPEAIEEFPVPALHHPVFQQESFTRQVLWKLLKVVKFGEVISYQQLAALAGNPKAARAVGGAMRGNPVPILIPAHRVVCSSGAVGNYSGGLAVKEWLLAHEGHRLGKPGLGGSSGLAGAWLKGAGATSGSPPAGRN
Work on B1 yielded a Kd of 2200 nM. Binder B2 has a Kd of 2000 ± 200 nM. B3 gave a Kd of 1800 ± 300 nM. With B4 the Kd was 1000 ± 100 nM. B5 gave a Kd of 4800 ± 500 nM.
